Experimental data taken from patent US20200270343A1 (COMPUGEN, published 2020).

T1: human VSIG10 flag protein over-expressed in HEK293 cells (stable pool) (human)
T1 chain: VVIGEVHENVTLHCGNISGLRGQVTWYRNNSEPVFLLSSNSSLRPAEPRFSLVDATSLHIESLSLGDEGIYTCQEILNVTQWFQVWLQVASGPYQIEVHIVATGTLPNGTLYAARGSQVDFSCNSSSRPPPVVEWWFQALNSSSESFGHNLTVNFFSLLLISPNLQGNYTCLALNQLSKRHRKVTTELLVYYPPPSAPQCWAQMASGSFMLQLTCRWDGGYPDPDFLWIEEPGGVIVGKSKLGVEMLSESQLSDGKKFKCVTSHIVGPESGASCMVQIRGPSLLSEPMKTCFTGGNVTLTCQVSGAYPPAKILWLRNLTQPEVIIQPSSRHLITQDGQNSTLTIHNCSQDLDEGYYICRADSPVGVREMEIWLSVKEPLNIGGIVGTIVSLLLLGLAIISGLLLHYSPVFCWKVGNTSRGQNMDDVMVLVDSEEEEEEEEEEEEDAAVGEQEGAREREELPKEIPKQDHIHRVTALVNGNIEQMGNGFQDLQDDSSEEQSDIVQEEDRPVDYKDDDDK


How the values were obtained:
[1] = target: human VSIG10 protein endogenously expressed on human cell lines (DAN-G, AsPc1/ASPC-1, DU-145, ZR-75) (human) (UniProt Q8N0Z9); assay: FACS on DAN-G cells transfected with scrambled (non-target) siRNA; 10 ug/ml mAb vs mIgG1 kappa isotype
[2] = target: human VSIG10 protein endogenously expressed on human cell lines (DAN-G, AsPc1/ASPC-1, DU-145, ZR-75) (human) (UniProt Q8N0Z9); assay: FACS on AsPc1 cells after VSIG10 siRNA knock down; 10 ug/ml mAb vs mIgG1 kappa isotype
[3] = target: human VSIG10 protein endogenously expressed on human cell lines (DAN-G, AsPc1/ASPC-1, DU-145, ZR-75) (human) (UniProt Q8N0Z9); assay: FACS on AsPc1 cells transfected with scrambled (non-target) siRNA; 10 ug/ml mAb vs mIgG1 kappa isotype
[4] = target: T1, human VSIG10 flag protein …; assay: FACS on HEK293 cells over-expressing human VSIG10 Flag vs HEK293 empty vector cells; goat anti mouse PE detection
Description: The performance of the purified mAbs against human VSIG10, in FACS application were tested using HEK293 cells over-expressing human VSIG10 Flag. HEK293 cells transfected with an empty vector were used as a negative control.
Detection was carried out using Goat anti mouse PE secondary Ab.

[5] = target: human VSIG10 protein endogenously expressed on human cell lines (DAN-G, AsPc1/ASPC-1, DU-145, ZR-75) (human) (UniProt Q8N0Z9); assay: FACS titration (8 concentrations) on ASPC-1 human cell line endogenously expressing VSIG10, vs mIgG1 kappa isotype; Kd from binding curve
[6] = target: T1, human VSIG10 flag protein …; assay: FACS titration (8 concentrations) on HEK293 cells over-expressing human VSIG10 Flag; Kd from binding curve
Description: (§1) The mAb binding was evaluated on HEK293 cells over expressing human VSIG10 as well.
(§2) Detection was carried out using Goat Anti mouse-PE secondary Ab.

[7] = target: human VSIG10 protein endogenously expressed on human cell lines (DAN-G, AsPc1/ASPC-1, DU-145, ZR-75) (human) (UniProt Q8N0Z9); assay: FACS on DAN-G cells after VSIG10 siRNA knock down; 10 ug/ml mAb vs mIgG1 kappa isotype
[8] = target: T1, human VSIG10 flag protein …; assay: FACS titration (4 concentrations) on HEK293 cells over-expressing human VSIG10 Flag; Kd from binding curve
Description: as §1, §2

[9] = target: human VSIG10 protein endogenously expressed on human cell lines (DAN-G, AsPc1/ASPC-1, DU-145, ZR-75) (human) (UniProt Q8N0Z9); assay: FACS titration (4 concentrations) on DU-145 human cell line endogenously expressing VSIG10, vs mIgG1 kappa isotype; Kd from binding curve

MFI ratio of anti VSIG10 versus isotype control [1] [fold]	MFI ratio of anti VSIG10 versus isotype control [2] [fold]	MFI ratio of anti VSIG10 versus isotype control [3] [fold]	fold change MFI ratio (VSIG10 Flag cells vs empty vector cells) [4] [fold]	Kd [5] [nM]	Kd [6] [nM]	MFI ratio of anti VSIG10 versus isotype control [7] [fold]	Kd [8] [nM]	Kd [9] [nM]	Binder
9.5	4.4	9.5	219	5.85	4.14	2.8			AB-576 anti-human VSIG10 mouse monoclonal antibody (antibody, V domains shown, clonal supernatant was also tested in WB) VH: EVQLQQSGPELVKPGASVKMSCKASGYTFTDYYMKWVKQSHGKSLEWIGDINPNNGGTTYNQKFKGKATLTVDKSSNTAYMQFNSLTSEDSAVYFCARFRLRAMDYWGQGTSVTVSS VL: DIVMTQSPSSLTVTAGEKVTMSCKSSQSLLNSGDRKNYLTWYQQRPGLPPKLLIYWASTRESGVPDRFTGSGSGTDFTLTISSVQSEDLAVYFCQNDYIYPLTFGAGTKLELK
12	5.2	9.3	160			3.54	4.67	4.62	AB-577 anti-human VSIG10 mouse monoclonal antibody (antibody, V domains shown, clonal supernatant was also tested in WB) VH: QVQLQQSGPELVRPGASVKMSCKPSGYRFTDYAISWVKQRTGQGLEWVGEIYPGNGNTYFNEKFKDKATLTADRSSNTAYMQLSSLTSEDSAVYFCARGYANYLPWGQGTLVTVSA VL: DIQMTQSSSSFSVSLGDRVTITCKASEDIYNRLAWYQQKPGNAPRLLISGATGLETGVPSRISGSGSGRDYTLSITSLQTEDVGTYYCQQYWSTPRTFGGGTKLEIK
